Test results: patent publication US8343491B2, “Anti-HIMF antibodies to treat lung diseases” (The Johns Hopkins University, priority 2006, dated 2013)
Entries after “also recorded” stand apart in the source; their conditions may differ.

How the values were obtained:
bone marrow cells [1] = experiment: Cell migration assay (Transwell); type: cell-based, mouse
Description: FIGS. 6A-6D. CD45 positive cell migration was stimulated by HIMF and inhibited by BTK inhibitor. Bone marrow cells were cultured on cover glass in 12 well plates as described in FIG. 5A-5B. The cells were then treated with BSA (FIG. 6A) or HIMF (FIG. 6B and FIG. 6C) for 4 days and fixed with pre-cooled methanol before immunocytochemistry with the indicated first antibodies. DAPI staining was used to show the nuclei. […] 5×10^5 bone marrow cells in 2% fetal bovine serum DMEM culture medium were transferred to each transwell in the presence of 50 nM BSA, HIMF, or HIMF plus 25 μM LFM-A13, respectively. The cells were cultured for 6 hours, fixed in pre-cooled methanol and stained by Coomassie Blue solution. The cells growing on the surface of the membrane were removed after staining. Bone marrow cell migration was induced by HIMF and this induction was inhibited by BTK inhibitor LFM-A13 (FIG. 6D).
Cell migration assay. Bone marrow cells were detached with trypsin-EDTA, washed in serum-free medium, and then counted and adjusted to 10^6 cells/ml. […]
BTK stimulated the migration of bone marrow cells. […] Cell migration was further determined by partial trypsin digestion culture, leaving the cells to grow in colonies on a cover glass.

BTK [2] = biological target: T1, BTK (Mus musculus, UniProt P35991); experiment: Protein phosphorylation assay (BTK Y223) in bone marrow cells; type: cell-based; conditions: 50 nM HIMF, minutes
T1 construct: incubated with bone marrow cell lysate or hypoxia tissue homogenate for three hours; endogenous in cells; host or cells: lysate of cultured mouse bone marrow cells; in the second result, homogenate of mouse hind limb hypoxic tissue
Description: (§1) FIGS. 4A-4C. BTK self-phosphorylation in response to the treatment of HIMF. Three plates of primary cultured bone marrow cells that were passed from the same plate of cells were cultured to confluence and then treated with HIMF (5 minutes and 30 minutes), or without HIMF. The cell lysates were used for the Western blot. The membrane was first probed by anti-BTK phosphorylation (Y223) antibody and then was probed by anti-BTK antibody after stripping (FIG. 4A). Five plates of primary cultured bone marrow cells that were passed from same plates of cells were cultured to confluence and then treated with HIMF (2.5, 5, 10 and 20 minutes respectively) or without HIMF. The cell lysates were used for the Western blot. The membrane was first detected by anti-BTK phosphorylation (Y223) antibody and then by anti-tubulin antibody (FIG. 4B). The same samples were used for the detection of fyn phosphorylation (FIG. 4C). Phosphorylation of Y416 upregulates enzyme activity. Phosphorylation of Y528 negatively regulates enzyme activity.
(§2) Protein phosphorylation assays. […] The supernatants of the samples were quantified for protein concentration and subjected to electrophoresis on a 4-15% SDS-polyacrylamide gel (Bio-Rad). […]

bone marrow cells [3] = experiment: Cell migration out of colony (partial trypsin digestion culture); type: cell-based, mouse; conditions: 50 nM HIMF, 2% FBS DMEM, four days
Description: FIGS. 5A-5B. HIMF stimulated bone marrow cell migration. Bone marrow cells were partially digested by trypsin-EDTA solution, washed by PBS and then sucked up and transferred to twelve well plates using a 1000 μl tip. The cells were cultured in 2% fetal bovine serum DMEM with 50 nM BSA or HIMF for four days. More cells migrated out of the original cell colony in the presence of HIMF than those in BSA (FIG. 5A). 5×10^5 bone marrow cells were cultured in transwell plates in the presence of 50 nM BSA or HIMF. The cells were cultured overnight, fixed in pre-cooled methanol and stained by Coomassie Blue solution. The cells growing on the surface of the membrane were removed after staining (FIG. 5B). A Nikon Eclipse microscope was used for the imaging.
BTK stimulated the migration of bone marrow cells. To test whether HIMF stimulates the migration of bone marrow cells, bone marrow cells were cultured in transwell plates in the presence of […] BSA or HIMF. The cells were cultured overnight, fixed in methanol and stained by Coomassie Blue solution. Cells growing on the surface of the membrane were removed by cotton tipped applicators before imaging. […] Cell migration was further determined by partial trypsin digestion culture, leaving the cells to grow in colonies on a cover glass.

Fyn = Fyn phosphorylation in bone marrow cells; type: cell-based, mouse; conditions: bone marrow cells stimulated with HIMF
Description: as §1, §2

BTK [4] = biological target: T1, BTK; experiment: BTK redistribution in bone marrow cells (immunofluorescence); type: cell-based; conditions: 50 nM HIMF, 5 minutes
Description: FIGS. 3A-3B. BTK redistribution in response to the stimulation of HIMF. Primary cultured bone marrow. Bone marrow cells were cultured on cover glass and then treated with 50 nM BSA (FIG. 3A) or HIMF (FIG. 3B) for five minutes. Cells were fixed by pre-cooled methanol before indirect immunofluorescence. BTK or FYN, a binding partner for BTK, was redistributed in bone marrow cells after the treatment of HIMF.
Immunofluorescence microscopy. Bone marrow or COS-7 cells were cultured on coverslips in DMEM containing 10% FBS and fixed in pre-cooled methanol for 5 minutes. The cells were then permeabilized with 0.2% Triton X-100 in PBS and blocked with 0.5% bovine serum albumin in PBS followed by incubation with the indicated antibodies. FITC-donkey anti-rabbit IgG and Rhodamine-donkey anti-mouse IgG were used as second antibodies. For transfection experiments, cells were cultured overnight and transfected with indicated constructs in serum-free medium for four hours and changed into DMEM containing 10% FBS overnight. Cells were fixed and stained as above. A 510 confocal microscope was used for the imaging.
Translocation of BTK in bone marrow cells in response to the stimulation of HIMF. […] The activation of BTK family tyrosine kinases will result in their stimulated translocation to membrane fractions (24). […]

[5] = tested on: hindlimb ischemia tissues; experiment: Mouse hindlimb ischemic model, agarose gel implant; type: in vivo; conditions: 100 nM HIMF in 2% agarose gel implanted, two weeks, versus BSA gel
Description: FIGS. 7A-7B. […] Mouse hind limb ischemia model was established and agarose gel containing 100 nM BSA or 100 nM HIMF (gels were cut into 2×5×8 mm pieces) were buried subcutaneously at the sites of ischemia. Two weeks later, the ischemic tissues were collected for immunocytochemistry. The tissue treated by HIMF (FIG. 7B) was shown increasing in CD34 positive cells comparing to that of BSA treated tissue (FIG. 7A).
Mouse hindlimb ischemic model. Animals were subjected to left femoral artery ligation and excision to create unilateral hind limb ischemia. For each animal, 25 mg/kg ketamine plus 10 mg/kg xylazine was injected subcutaneously. Skin incisions were performed at the middle portion of the left hind limb overlying the femoral artery. The femoral artery was gently isolated. First the proximal portion and then the distal portion of the femoral artery were ligated, and then other arterial branches as well as veins were dissected free and excised. The overlying skin was closed using two surgical staples. Tissue in the hypoxia area was removed and homogenized in TBST buffer two weeks after the operation.
HIMF promoted angiogenesis in hypoxic tissues. Hypoxia can induce pulmonary artery adventitial remodeling and neovascularization. […]

BTK [6] = biological target: T1, BTK; experiment: GST pull-down assay; type: binding
Description: FIGS. 1A-1B. BTK is a HIMF-binding molecule. GST-HIMF fusion protein and GST were incubated with glutathione-sepharose beads and then incubated with bone marrow cell lysate respectively in TBST buffer at 4° C. for three hours. The beads were washed five times by TBST and loading buffer was added to the samples. After electrophoresis, the gel was stained by Coomassie Blue. […] GST-HIMF and GST were first bonded to glutathione sepharose and then incubated with the lysate of bone marrow cells (left) or homogenate of ischemic tissue (right) at 4° C. for three hours and then washed by TBST solution three times. After SDS-PAGE and transfer to membrane, the samples were detected by anti-BTK and anti-GST antibodies (FIG. 1B).
GST pull-down assay. Bone marrow cells were cultured in ten 150×25 mm plates until confluence and collected for lysate using TBST buffer. Lysate from ten plates of bone marrow cells was used for HIMF-binding partner screening assay. Hypoxia tissue homogenate was prepared as described above. BL21 bacterial lysates for GST and GST-HIMF were first incubated with glutathione agarose in 0.1% TBST buffer for three hours and then washed three times by 0.1% TBST buffer. The GST and GST-HIMF binding glutathione agaroses were incubated with bone marrow cell lysate or hypoxia tissue homogenate for three hours and then washed 3-5 times before SDS-PAGE.

T1 sequence (P35991 whole entry): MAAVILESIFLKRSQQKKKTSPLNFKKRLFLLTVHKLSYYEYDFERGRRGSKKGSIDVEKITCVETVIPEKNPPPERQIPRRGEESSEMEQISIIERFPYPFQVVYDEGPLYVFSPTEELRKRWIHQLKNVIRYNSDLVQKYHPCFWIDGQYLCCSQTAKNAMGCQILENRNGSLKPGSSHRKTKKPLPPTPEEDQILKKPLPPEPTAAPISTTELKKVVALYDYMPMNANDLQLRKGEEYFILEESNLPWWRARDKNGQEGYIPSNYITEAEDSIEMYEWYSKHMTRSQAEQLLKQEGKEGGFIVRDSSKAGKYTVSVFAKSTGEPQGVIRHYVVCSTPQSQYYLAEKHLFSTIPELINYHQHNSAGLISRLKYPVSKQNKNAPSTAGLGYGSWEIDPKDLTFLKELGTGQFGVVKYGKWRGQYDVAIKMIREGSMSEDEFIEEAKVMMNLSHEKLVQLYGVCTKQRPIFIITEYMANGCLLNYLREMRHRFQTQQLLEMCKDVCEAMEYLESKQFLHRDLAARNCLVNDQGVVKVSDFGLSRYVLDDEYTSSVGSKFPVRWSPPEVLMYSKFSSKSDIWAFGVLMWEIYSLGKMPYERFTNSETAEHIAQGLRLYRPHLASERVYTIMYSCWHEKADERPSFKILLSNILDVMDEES

With C/C(O)=C(\C#N)C(=O)Nc1cc(Br)ccc1Br [LFM-A13, reference compound] the “Inhibition of HIMF-induced bone marrow cell migration” value (bone marrow cells [1]; 25 μM LFM-A13 plus 50 nM HIMF, transwell, 6 hours) was “inhibited; also recorded: completely blocked”.

B1: HIMF: Hypoxia-induced mitogenic factor protein (Flag-tagged mouse HIMF) applied to cells and tissue (protein)
chain: DETIEIIVENKVKELLANPANYPSTVTKTLSCTSVKTMNRWASCPAGMTATGCACGFACGSWEIQSGDTCNCLCLLVDWTTARCCQLS
With B1 the “BTK self-phosphorylation (Y223)” value (BTK [2]) was “stimulate the self-phosphorylation of BTK”, the “Bone marrow cell migration out of the colony versus BSA” value (bone marrow cells [3]) was “more bone marrow cells were stimulated to migrate out of the colony” and the “Fyn activity (phosphorylation Y416/Y528)” value (Fyn) was “not changed in activity”. The “BTK translocation in bone marrow cells” value (BTK [4]) was “rapidly induced recruitment of BTK to the leading edge of cells”, the “Bone marrow cell migration (transwell) versus BSA” value (bone marrow cells [1]; 50 nM HIMF, overnight) was “markedly promoted; also recorded: More cells migrated out of the chamber” and the “Angiogenesis in hindlimb ischemia tissues” value [5] was “stimulated angiogenesis”. The “CD34 positive cells in ischemic tissue” value [5] was “increased”.

B2: GST-HIMF: GST fusion protein of mouse HIMF expressed in BL21 cells (protein)
chain: B1 chain
modifications: left off: a dimerising Fc or GST
notes: GST fusion protein of mouse HIMF expressed in BL21 cells
B2 was tested, and the “Pull-down of BTK from bone marrow cell lysate” value (BTK [6]; bone marrow cell lysate, GST control did not) was “pulled down BTK” and the “Binding of BTK from hind limb hypoxic tissue homogenate” value (BTK [6]; homogenate of mouse hind limb hypoxic tissue, not to GST) was “shown to bind”.
